The values below come from patent US20220177587A1 (Alpine Immune Sciences, Inc., published 2022).

Changes are numbered by the printed parent chain. Numbers in names are those of the source.

One test addresses human CTLA-4 (human, UniProt P16410). The test can be described thus: flow cytometry, CHO/CTLA4 cells; MFI over CD80 WT IgV-Fc. In general terms: In flow cytometry, cells or beads pass a laser one at a time.
For the next test, the target named is human PD-L1 (human, UniProt Q9NZQ7). The test is described as follows: flow cytometry, CHO/PD-L1 cells; MFI over CD80 WT IgV-Fc.
For test [1], the target named is human CD28 (human, UniProt P10747). The test is described as follows: flow cytometry, Jurkat cells (CD28); MFI over CD80 WT IgV-Fc.
Test [2] shares this target. The test is described as follows: cell-based or functional assay.

B1: CD80 E35D/M47V/N48K/V68M/K89N IgV-Fc, delta linker (Fc fusion)
chain: VIHVTKEVKEVATLSCGHNVSVEELAQTRIYWQKDKKMVLTMMSGDVKIWPEYKNRTIFDITNNLSIMILALRPSDEGTYECVVLKYENDAFKREHLAEVTLSVKTHTCPPCPAPEAEGAPSVFLFPPKPKDTLMISRTPEVTCVVVDVSHEDPEVKFNWYVDGVEVHNAKTKPREEQYNSTYRVVSVLTVLHQDWLNGKEYKCKVSNKALPAPIEKTISKAKGQPREPQVYTLPPSREEMTKNQVSLTCLVKGFYPSDIAVEWESNGQPENNYKTTPPVLDSDGSFFLYSKLTVDKSRWQQGNVFSCSVMHEALHNHYTQKSLSLSPG
As to B1, the “Fold change to WT CD80” value with human CTLA-4 was 2.6 fold; with human PD-L1 it was 439 fold; in the test with human CD28 [1], 83.7 fold.

B2: CD80 E35D/D46V/M47L/V68M/L85Q/E88D IgV-Fc, delta linker (Fc fusion)
chain: B1 chain with D46V, V47L, K48N, L85Q, E88D, N89K
On to B2, for which the “Fold change to WT CD80” value with human CTLA-4 turned out to be 10.2 fold; with human PD-L1 it was 484 fold; with human CD28 [1] it was 74.7 fold.

B3: SIP 2: Variant CD80 IgV-GSG4S-Inert Fc (E35D, D46V, M47L, and V68M) (Fc fusion)
chain: VIHVTKEVKEVATLSCGHNVSVEELAQTRIYWQKDKKMVLTMMSGVLNIWPEYKNRTIFDITNNLSIMILALRPSDEGTYECVVLKYEKDAFKREHLAEVTLSVKADGSGGGGSEPKSSDKTHTCPPCPAPEAEGAPSVFLFPPKPKDTLMISRTPEVTCVVVDVSHEDPEVKFNWYVDGVEVHNAKTKPREEQYNSTYRVVSVLTVLHQDWLNGKEYKCKVSNKALPAPIEKTISKAKGQPREPQVYTLPPSRDELTKNQVSLTCLVKGFYPSDIAVEWESNGQPENNYKTTPPVLDSDGSFFLYSKLTVDKSRWQQGNVFSCSVMHEALHNHYTQKSLSLSPG
For the molecule B3, in the test with human CD28 [2], the “CD28 costimulation EC50, Jurkat/IL-2 luciferase reporter; SIP 2 (Supernatant) from Donor 1 Pan T-cells” value amounted to 282 pM; the “CD28 costimulation EC50, Jurkat/IL-2 luciferase reporter; SIP 2 (Supernatant) from Donor 2 Pan T-cells” value came out at 750 pM; the “CD28 costimulation EC50, Jurkat/IL-2 luciferase reporter; SIP 2 (Supernatant) from Jurkat cells” value turned out to be 750 pM.

B4: SIP 4: Variant CD80 IgV-GSG4S-Inert Fc (H18Y, A26P, E35D, M47I, V68M, and A71G) (Fc fusion)
chain: B3 chain with H18Y, A26P, V46D, L47I, A71G
For B4, in the test with human CD28 [2], the “CD28 costimulation EC50, Jurkat/IL-2 luciferase reporter; SIP 4 (Supernatant) from Donor 1 Pan T-cells” value is 153 pM; the “CD28 costimulation EC50, Jurkat/IL-2 luciferase reporter; SIP 4 (Supernatant) from Donor 2 Pan T-cells” value amounted to 221 pM; the “CD28 costimulation EC50, Jurkat/IL-2 luciferase reporter; SIP 4 (Supernatant) from Jurkat cells” value stood at 221 pM.

B5: SIP 3: Variant CD80 IgV-GSG4S-Inert Fc (H18Y, E35D, M47V, V68M, and A71G) (Fc fusion)
chain: B3 chain with H18Y, V46D, L47V, A71G
For the molecule B5, in the test with human CD28 [2], the “CD28 costimulation EC50, Jurkat/IL-2 luciferase reporter; SIP 3 (Supernatant) from Donor 1 Pan T-cells” value stood at 294 pM; the “CD28 costimulation EC50, Jurkat/IL-2 luciferase reporter; SIP 3 (Supernatant) from Donor 2 Pan T-cells” value is 961 pM; the “CD28 costimulation EC50, Jurkat/IL-2 luciferase reporter; SIP 3 (Supernatant) from Jurkat cells” value worked out at 961 pM.
